± gives the half width of the 95% confidence interval.
Tests used:
[1] = folding stability dG unfold from trypsin proteolysis; higher = more stable
Procedure, shortened: (§1)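 Mini-proteins designed to be under 80 residues and free of cysteine were carried in a PA-tagged cDNA display construct and digested with trypsin and with chymotrypsin. Each protease was applied at 11 threefold-diluted concentrations, alongside a no-protease condition, before sequencing. K50 came from Bayesian fitting of the sequencing counts, and unfolding free energy was obtained by comparing it with a sequence-predicted unfolded-state K50 and a shared folded-state K50, for each protease separately or for both together. Designs were retained only if their AlphaFold2 dimer inter-PAE exceeded 15.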

[2] = folding stability dG unfold from chymotrypsin proteolysis; higher = more stable
Procedure, shortened: as §1

[3] = folding stability dG unfold (combined trypsin and chymotrypsin); higher = more stable
Procedure, shortened: as §1

| Sequence | folding stability dG unfold [1] [kJ/mol] | folding stability dG unfold [2] [kJ/mol] | folding stability dG unfold [3] [kJ/mol] |
| --- | --- | --- | --- |
| SAGGSAGGSASYIPVTYSFFFPDKPYVERVEAEYELGPDGTPRILSAKVEVFPVDFSPDELSAGGSAGGSAG [r3_138_TrMRF] | 3.45 ± 0.163 | 1.17 ± 0.669 | 2.77 ± 0.285 |
| SAGGSAGGSATITITVDGKTITLEVPEDSEVEIVFDEKTGKLFIKDKKTNKVYEVSLEELLSAGGSAGGSAG [r3_137_TrROS_Hall] | 15 ± 0.92 | 16.7 ± 0.628 | 16.4 ± 0.544 |
| SAGGSAGGSATRVEVEWKDGYLVITKYETLPNGEWKEVKTIVIPIEGNDPIAIEKAKEVIEKLSAGGSAGGS [r12_169_JUSTAS] | 12.1 ± 0.213 | 12.1 ± 0.205 | 12.2 ± 0.268 |
| SAGGSAGGSATTVTVESDPATGTRFVYETDEKNPGLLKVTKVTTLPDGSVVVETGYISPEKLSAGGSAGGSA [r18_505_JUSTAS] | 6.06 ± 0.213 | 7.27 ± 0.18 | 6.72 ± 0.46 |
| SAGGSAGGSATVTVTETNEDGEETTTEVEVFEVKPPPAPVLKVEAVIDPETNELVDVKVELFASAGGSAGGS [r12_539_TrROS_Hall] | 5.68 ± 0.418 | 0.84 ± 0.586 | 3.28 ± 0.586 |
| SAGGSAGGSAVAEEFKKKFPDKTVTVEAFTFERTVTHPDGGSSTERVTVLNVTVSSSDDPGSAGGSAGGSAG [r3_358_TrMRF] | 5.64 ± 0.297 | 8.99 ± 0.418 | 8.19 ± 0.46 |
| SAGGSAGGSAVETLVTYEVPEDLPPDSLSPEAVIARFAPLGVPTEVVEIDPATGTVTVRTLVPSAGGSAGGS [r12_733_JUSTAS] | -1.58 ± 0.544 | 4.18 ± 0.155 | 2.78 ± 0.197 |
| SAGGSAGGSAVPFVLPDGYVLEVEPDPETGLYRIRVTSPDGRTYEFTAPPDVPLADIPVVIDDSAGGSAGGS [r12_261_TrMRF] | 12.1 ± 0.247 | 12.4 ± 0.142 | 12.3 ± 0.222 |
| SAGGSAGGSAVRTIFIPGGNIKDIIELIKSDPGQPVQIHAPDGWVIKITGDKDIDIHPFPDSAGGSAGGSAG [r3_269_TrROS] | -1.84 ± 0.837 | 1.41 ± 0.351 | 0.904 ± 0.628 |
| SAGGSAGGSAVTIYIPWDEILEELGLPPEDVEYKPMKNGSYSFKYKNGKPVTIIMPPEDFKSAGGSAGGSAG [r3_477_TrROS] | -0.5 ± 1.21 | 4.46 ± 0.837 | 2.77 ± 0.795 |
| SAGGSAGGSAVVALTPDGALAVWFPEKGVVVVYNPATGTYTVLTVDADNTVTLEDVPPNTDVFSAGGSAGGS [r12_997_TrMRF] | 6.12 ± 0.134 | 4.71 ± 0.293 | 5.59 ± 0.238 |
| SAGGSAGGSDDDENQKENQKAKPIKLEPIVEITVPYPDGFSLTVPIWRWPDGGIGIELEIFPLGSAGGSAGG [r6_326_TrROS] | 3.63 ± 0.297 | 6.02 ± 0.188 | 5.42 ± 1.55 |
| SAGGSAGGSDDMIPIPFKIKLKDPNGKPHEFPVTIWINPEDGMIMIRYPNQPIMIDPDKIEIESAGGSAGGS [r20_48_TrROS] | 4.08 ± 0.372 | 4.48 ± 0.795 | 4.22 ± 0.669 |
| SAGGSAGGSDIPIEIVDVEHTDNMISVIIKGPDGNYFVINFQFNPGNGKFNVNISIIPPEDLKSAGGSAGGS [r20_70_TrROS] | 8.65 ± 0.879 | 16.5 ± 1.09 | 14.8 ± 1.09 |
| SAGGSAGGSDKIVERLQKRFPNVRISNIQPTPDGVTIQIENPDGKEFTIPYDELEKHGIEIEPSAGGSAGGS [r12_3_TrROS] | 0.908 ± 0.711 | 2.49 ± 0.356 | 1.91 ± 0.669 |
| SAGGSAGGSDKVVEFTFKIPSKDITAEDIAKAVKEAFPGVKKIEVTLYPGEGTAKVKVYLEPSSAGGSAGGS [r20_31_TrMRF] | 14.7 ± 0.669 | 18.6 ± 0.368 | 18 ± 0.753 |
| SAGGSAGGSDMVLVTAPVDIPPNVKVEIKLKDGYETVSYDPESGRLVILVPANKLDEVLEAIKSAGGSAGGS [r12_476_TrMRF] | 4.17 ± 0.109 | 8.39 ± 0.364 | 6.9 ± 0.314 |
| SAGGSAGGSDNVKIEWEYNPENGVYTHEVYYDDGRPVTIIINPAEGPIWVFDPPDGKPIAPIPSAGGSAGGS [r12_657_TrROS] | 5.68 ± 0.209 | 3.49 ± 0.0962 | 4.49 ± 0.305 |
